For 126 variants, screen value results are on record in paper PMC12102759.

The chains are these.
B1: TET3 peptide 460-475 (Methylcytosine dioxygenase TET3), 16-mer library wild type / NSP3 SUD-M (ORF1ab Nsp3c SUD-M, residues 1356-1493) (parent)
chain 1: MAELEQLLGSASDYIQ
chain 2: LPSIISNEKQEILGTVSWNLREMLAHAEETRKLMPVCVETKAIVSTIQRKYKGIKIQEGVVDYGARFYFYTSKTTVASLINTLNDLNETLVTMPLGYVTHGLNLEEAARYMRSLKVPATVSVSSPDAVTAYNGYLTSS
B2: MBOAT1 peptide 17-32 (Lysophospholipid acyltransferase 1), 16-mer library wild type / NSP3 ADRP (ORF1ab Nsp3b ADRP, residues 1023-1192) (parent)
chain 1: STYLHPLSELLGIPLD
chain 2: not shown

Variants of B1 are the subject of one experiment. The following applies: with NSP3 SUD-M (ORF1ab Nsp3c SUD-M, residues 1356-1493); bait immobilised on MaxiSorp plates (10 µg), library pre-cleared on GST, 2 h binding at 4 °C, five washes; one round per day, days 1-4; value from days 2 and 3; keep out of graded; scale: average fractional NGS count over selection days 2 and 3.
On to chain 1 MAELEQQLGSASDYIQ [chain 1 L7Q], for which the screen value is 0.
Take chain 1 MAELEQNLGSASDYIQ [chain 1 L7N]: the screen value is 0.
Still for that read-out and setting: then chain 1 MAELEQPLGSASDYIQ [chain 1 L7P], with 0; and chain 1 MAELEQTLGSASDYIQ [chain 1 L7T], with 0; and chain 1 MAELEQLLGSWSDYIQ [chain 1 A11W], with 0.
On to chain 1 MAELEQLLGSNSDYIQ [chain 1 A11N], for which the screen value amounted to 0.
Regarding chain 1 MAELEQLLGGASDYIQ [chain 1 S10G], the screen value stood at 0.
On to chain 1 MAELEQLLGSAPDYIQ [chain 1 S12P], for which the screen value came out at 0.
As to chain 1 MAELEQLEGSASDYIQ [chain 1 L8E], the screen value was 0.
For chain 1 MAELEQLSGSASDYIQ [chain 1 L8S], the screen value amounted to 0.
For the variant chain 1 MAELEQLWGSASDYIQ [chain 1 L8W], the screen value was determined as 0.
On the same count and under the same terms, to chain 1 MAELEQLIGSASDYIQ [chain 1 L8I] belongs 0; to chain 1 MAELEGLLGSASDYIQ [chain 1 Q6G], 0.
Still for that read-out and setting: then chain 1 MAELESLLGSASDYIQ [chain 1 Q6S], with 0.
For the variant chain 1 MAELEPLLGSASDYIQ [chain 1 Q6P], the screen value came to 0.
For the variant chain 1 MAELEYLLGSASDYIQ [chain 1 Q6Y], the screen value came to 0.
Same read-out and setting: to chain 1 MAELEKLLGSASDYIQ [chain 1 Q6K] belongs 0; to chain 1 MAELKQLLGSASDYIQ [chain 1 E5K], 0.
For the variant chain 1 MAELDQLLGSASDYIQ [chain 1 E5D], the screen value is 0.000325.
Regarding chain 1 MAELWQLLGSASDYIQ [chain 1 E5W], the screen value is 0.
The same measure, in the same setting: then chain 1 MTELEQLLGSASDYIQ [chain 1 A2T], with 0; and chain 1 MHELEQLLGSASDYIQ [chain 1 A2H], with 3.41e-05; and chain 1 MRELEQLLGSASDYIQ [chain 1 A2R], with 0.
As for chain 1 MWELEQLLGSASDYIQ [chain 1 A2W], the screen value was found to be 0.
As for chain 1 MAELEQLLGSASDYMQ [chain 1 I15M], the screen value was 0.
Still for that read-out and setting: to chain 1 MAELEQLLGSASDYGQ [chain 1 I15G] belongs 0; to chain 1 MAELEQLLGSASDYRQ [chain 1 I15R], 0; to chain 1 MAEGEQLLGSASDYIQ [chain 1 L4G], 0.
Consider chain 1 MAEYEQLLGSASDYIQ [chain 1 L4Y], for which the screen value amounted to 0.
As for chain 1 MAEREQLLGSASDYIQ [chain 1 L4R], the screen value came to 0.
In the case of chain 1 MAEMEQLLGSASDYIQ [chain 1 L4M], the screen value is 0.
As for chain 1 MAELEQLLGSASDFIQ [chain 1 Y14F], the screen value amounted to 0.
Same read-out and setting: to chain 1 MAELEQLLGSASDTIQ [chain 1 Y14T] belongs 0; to chain 1 MAWLEQLLGSASDYIQ [chain 1 E3W], 6.52e-05; to chain 1 MAMLEQLLGSASDYIQ [chain 1 E3M], 0.
For chain 1 MANLEQLLGSASDYIQ [chain 1 E3N], the screen value was determined as 0.
For the variant chain 1 MATLEQLLGSASDYIQ [chain 1 E3T], the screen value came to 0.000884.
Take chain 1 MAQLEQLLGSASDYIQ [chain 1 E3Q]: the screen value is 0.
The same measure, in the same setting: then chain 1 MAELEQLLGSASNYIQ [chain 1 D13N], with 0; and chain 1 MAELEQLLGSASFYIQ [chain 1 D13F], with 0.
In the case of chain 1 MAELEQLLGSASGYIQ [chain 1 D13G], the screen value came to 0.
On to chain 1 MAELEQLLGSASSYIQ [chain 1 D13S], for which the screen value stood at 0.
Still for that read-out and setting: to chain 1 MAELEQLLGSASIYIQ [chain 1 D13I] belongs 0; to chain 1 GAELEQLLGSASDYIQ [chain 1 M1G], 0; to chain 1 RAELEQLLGSASDYIQ [chain 1 M1R], 0.
Turning to chain 1 HAELEQLLGSASDYIQ [chain 1 M1H], the screen value was found to be 0.
With chain 1 TAELEQLLGSASDYIQ [chain 1 M1T], the screen value is 0.
For the variant chain 1 KAELEQLLGSASDYIQ [chain 1 M1K], the screen value was determined as 0.

In another experiment the parent is B2. As to conditions: with NSP3 ADRP (ORF1ab Nsp3b ADRP, residues 1023-1192); bait immobilised on MaxiSorp plates (10 µg), library pre-cleared on GST, 2 h binding at 4 °C, five washes; one round per day, days 1-4; value from days 2 and 3; keep out of graded; scale: average fractional NGS count over selection days 2 and 3.
For chain 1 L11I, the screen value amounted to 0.000109.
On the same count and under the same terms, to chain 1 L11Q belongs 0; to chain 1 L11G, 7.04e-06.
chain 1 L11N: the screen value was 2.27e-05.
Consider chain 1 L11A, for which the screen value worked out at 8.96e-05.
The same measure, in the same setting: then chain 1 L11R, with 4.2e-05; and chain 1 L11Y, with 0.00171; and chain 1 L11H, with 0.
As to chain 1 L11S, the screen value was 3.31e-05.
chain 1 L11M: the screen value is 1.65e-05.
In the case of chain 1 L11W, the screen value was 0.0297.
With chain 1 H5S, the screen value is 5.25e-05.
The same measure, in the same setting: then chain 1 H5Q, with 0.
Turning to chain 1 H5L, the screen value was found to be 0.
chain 1 H5N: the screen value was determined as 0.0049.
Regarding chain 1 H5M, the screen value is 0.
For chain 1 H5I, the screen value was determined as 0.
On to chain 1 L10Y, for which the screen value came to 0.157.
Turning to chain 1 L10T, the screen value worked out at 0.
In the case of chain 1 L10Q, the screen value was 0.
Take chain 1 L10R: the screen value was determined as 0.
chain 1 L10M: the screen value was 0.000281.
Take chain 1 L10F: the screen value stood at 0.00233.
For the variant chain 1 L10I, the screen value came to 1.63e-05.
With chain 1 L10N, the screen value was 1.09e-05.
Regarding chain 1 L10K, the screen value was found to be 0.
On to chain 1 L10H, for which the screen value stood at 3e-05.
Still for that read-out and setting: to chain 1 L10G belongs 0.
As to chain 1 L10V, the screen value is 0.
Take chain 1 L10S: the screen value turned out to be 4.6e-05.
Take chain 1 G12S: the screen value was determined as 0.000443.
On the same count and under the same terms, then chain 1 G12N, with 5.25e-05.
Same read-out and setting: to chain 1 G12D belongs 0.
Still for that read-out and setting: to chain 1 G12Q belongs 0.000576; to chain 1 G12W, 3.64e-05; to chain 1 G12I, 5.57e-05.
With chain 1 G12P, the screen value was 5.99e-05.
Regarding chain 1 G12A, the screen value worked out at 0.00306.
Consider chain 1 G12M, for which the screen value was 0.000127.
Consider chain 1 G12V, for which the screen value amounted to 0.
Regarding chain 1 G12H, the screen value stood at 0.000369.
On the same count and under the same terms, then chain 1 I13F, with 0.00253; and chain 1 I13D, with 0.
For chain 1 I13A, the screen value worked out at 5.81e-05.
chain 1 I13K: the screen value was 0.
Same read-out and setting: to chain 1 I13W belongs 0.00073.
As to chain 1 I13N, the screen value stood at 3.03e-05.
In the case of chain 1 I13Q, the screen value was 0.00199.
On the same count and under the same terms, then chain 1 I13T, with 3.35e-05; and chain 1 I13V, with 3.18e-05.
For chain 1 I13Y, the screen value was 0.00165.
In the case of chain 1 I13H, the screen value amounted to 8.18e-05.
For chain 1 I13L, the screen value was determined as 0.00192.
With chain 1 I13R, the screen value stood at 1.08e-05.
Turning to chain 1 L4P, the screen value worked out at 7.55e-05.
For the variant chain 1 L4F, the screen value worked out at 0.000245.
As to chain 1 L4N, the screen value is 0.
Regarding chain 1 L4E, the screen value is 0.
With chain 1 L4M, the screen value amounted to 8.68e-05.
Turning to chain 1 L4S, the screen value came to 0.
For the variant chain 1 L4V, the screen value is 0.000192.
For the variant chain 1 L4A, the screen value stood at 1.65e-05.
Take chain 1 L4R: the screen value came out at 0.
chain 1 L4H: the screen value was 0.000101.
On to chain 1 L4D, for which the screen value worked out at 0.
On the same count and under the same terms, then chain 1 L4Y, with 0.000191.
As for chain 1 L4W, the screen value came out at 0.000705.
As for chain 1 L15T, the screen value was found to be 9.33e-05.
As for chain 1 L15M, the screen value is 0.000121.
For the variant chain 1 L15W, the screen value worked out at 8.57e-05.
With chain 1 L15I, the screen value turned out to be 0.000505.
For the variant chain 1 L15Y, the screen value turned out to be 0.000938.
Turning to chain 1 L15E, the screen value was 0.
Still for that read-out and setting: then chain 1 L15A, with 0; and chain 1 L15Q, with 0.
For the variant chain 1 L15P, the screen value turned out to be 0.
The same measure, in the same setting: to chain 1 L15V belongs 0.000529; to chain 1 S8G, 0.
